In patent US20140044730A1 (Regeneron, published 2014):

What was measured:
[1] = target: T1, human PCSK9 with a C-terminal myc-myc-hexahistidine tag (human, UniProt Q8NBP7 31-692, limits assumed); assay: SPR 25C, purified mAb captured
T1 construct: also called hPCSK9-mmH; hPCSK9-mmh; not shown: C-terminal myc-myc-hexahistidine tag

[2] = target: T1, human PCSK9 with a C-terminal …; assay: SPR 25C pH 7.4, purified mAb captured
Method: (§1) A Biacore CM4 sensor chip was derivatized with a monoclonal mouse anti-human Fc antibody to capture human antibodies. The histidine substitution variant anti-PCSK9 antibodies were captured onto the anti-human Fc sensor surface from culture medium after transient expression in Chinese hamster ovary (CHO) cells. […] Kinetic association (kₐ) and dissociation (kd) rate constants were determined by processing and fitting the data to a 1:1 binding model using Scrubber 2.0 curve fitting software. Binding dissociation equilibrium constants (KD) and dissociative half-lives (t_{1/2}) were calculated from the kinetic rate constants as: KD (M)=kd/kₐ; and t_{1/2} (min)=(In2/(60*kd).
All measurements were taken at 25° C.

[3] = target: T1, human PCSK9 with a C-terminal …; assay: SPR 25C pH 6.0, purified mAb captured
Method: as §1
Also included in these experiments were several control/comparator antibodies. All measurements were taken at 25° C.

[4] = target: T1, human PCSK9 with a C-terminal …; assay: blocking ELISA pH 7.2, 500 pM hPCSK9-mmH vs coated hLDLR EGFA-hFc
Method: (§2) Briefly, hLDLR EGFA-hFc was coated at 2 μg/mL in PBS on a 96-well microtiter plate overnight at 4° C. followed by blocking with a solution of 0.5% (w/v) BSA in PBS.
(§3) The equilibrated sample solutions were then transferred to a LDLR EGFA-hFc coated plate.

[5] = target: T1, human PCSK9 with a C-terminal …; assay: blocking ELISA pH 7.2, 500 pM hPCSK9-mmH vs coated hLDLR EGFA-hFc, exp #2
From the text: The equilibrated sample solutions were then transferred to the LDLR EGFA-hFc coated plate prepared as described above.

[6] = target: T1, human PCSK9 with a C-terminal …; assay: blocking ELISA, hPCSK9-mmH vs coated hLDLR EGFA-hFc; non-blocking at pH 5.75
Method: as §2, §3

[7] = target: T1, human PCSK9 with a C-terminal …; assay: SPR (Biacore), 37 °C; antibody captured on anti-human Fc surface, hPCSK9-mmH injected (3.125-50 nM); association at pH 7.4, dissociation at pH 6.0
Method: (§4) A Biacore CM4 sensor chip was derivatized with a Fab′2 polyclonal anti-human Fc antibody to capture human antibodies. […] Dissociation (kd) rate constants were determined by processing and fitting the data using Scrubber version 2.0 curve fitting software. Dissociative half-lives (t_{1/2}) were calculated from the dissociation rate constants as: t_{1/2} (min)=(In2/kd)/60.

[8] = target: T1, human PCSK9 with a C-terminal …; assay: SPR (Biacore), 37 °C; antibody captured on anti-human Fc surface, hPCSK9-mmH injected (3.125-50 nM); association at pH 7.4, dissociation at pH 7.2
Method: All experiments were carried out at 37° C.
as §4

[9] = target: T1, human PCSK9 with a C-terminal …; assay: SPR (Biacore), 37 °C; antibody captured on anti-human Fc surface, hPCSK9-mmH injected (3.125-50 nM); association at pH 7.4, dissociation at pH 7.4
Method: as §4

[10] = target: T1, human PCSK9 with a C-terminal …; assay: SPR (Biacore), 37 °C; antibody captured on anti-human Fc surface, hPCSK9-mmH injected (3.125-50 nM); association at pH 7.4, dissociation at pH 5.75
Method: as §4

- KD ratio pH 6.0/pH 7.4 [1]: 15.7
- ka ratio pH 6.0/pH 7.4 [1]: 1.79
- kd ratio pH 6.0/pH 7.4 [1]: 28.4
- t½ ratio pH 6.0/pH 7.4 [1]: 0.04
- Kd [2]: 2.68 nM
- koff [2]: 0.000278 s⁻¹
- kon [2]: 104000 M⁻¹ s⁻¹
- t½ [2]: 41.5 min
- Kd [3]: 42.1 nM
- koff [3]: 0.0079 s⁻¹
- kon [3]: 186000 M⁻¹ s⁻¹
- t½ [3]: 1.5 min
- IC50 [4]: 0.354 nM
- IC50 [5]: 0.461 nM
- IC50 ratio (pH 5.75/pH 7.2) [6]: > 500
- t½ (dissociative half-life) [7]: 0.2 min
- t½ (dissociative half-life) [8]: 8.9 min
- t½ (dissociative half-life) [9]: 8.7 min
- t½ (dissociative half-life) [10]: 0.1 min
B1: VH-D106H/VK-L30H (antibody, IgG4, V domains shown)
VH: EMQLVESGGGLVQPGGSLRLSCAASGFTFSSHWMKWVRQAPGKGLEWVANINQDGSEKYYVDSVKGRFTISRDNAKNSLFLQMNSLRAEDTAVYYCARDIVLMVYHMDYYYYGMDVWGQGTTVTVSS
VL: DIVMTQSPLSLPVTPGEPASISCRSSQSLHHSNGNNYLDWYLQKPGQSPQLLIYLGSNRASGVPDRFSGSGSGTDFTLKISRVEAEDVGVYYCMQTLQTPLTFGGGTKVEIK
notes: double His variant of 300N; also called VH-D106/VK-L30H; VH-D016H/VK-L30H
